Assay [1] has as its target T1, recombinant CHI3L2 (UniProt Q15782 27-390, limits assumed).
T1 sequence (looked up): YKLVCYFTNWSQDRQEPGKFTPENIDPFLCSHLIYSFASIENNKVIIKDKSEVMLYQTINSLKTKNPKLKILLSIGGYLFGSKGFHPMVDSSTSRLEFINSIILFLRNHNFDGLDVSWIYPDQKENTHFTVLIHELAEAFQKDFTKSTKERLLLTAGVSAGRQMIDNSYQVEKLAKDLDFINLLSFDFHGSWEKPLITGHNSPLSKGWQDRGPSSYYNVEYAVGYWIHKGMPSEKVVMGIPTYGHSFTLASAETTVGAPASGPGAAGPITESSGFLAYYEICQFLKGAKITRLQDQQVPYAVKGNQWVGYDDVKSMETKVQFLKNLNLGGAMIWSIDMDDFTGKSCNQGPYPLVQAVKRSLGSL
Briefly: flow cytometry blocking assay on fixed/permeabilized THP-1 cells; antibody pre-incubated with recombinant protein. As to the method:
(§1) To assess for specificity for CHI3L1 and cross-reactivity with the closely related protein CHI3L2, certain anti-CHI3L1 antibody clones were assessed using CHI3L1 expressing human […] cell line THP-1. THP-1 cells were grown in RPMI media supplemented with 10% FBS in T75 culture flask. Cells were fixed in Fixation Buffer and permeabilized using Intracellular Perm Wash Buffer. 1 μg anti-CHI3L1 antibodies (conjugated to Alexa-647) were incubated with 5 μg recombinant CHI3L1 or recombinant CHI3L2 for 15 minutes and then added to cells. After 15 minutes incubation, cells were then washed twice with Intracellular Perm Wash Buffer and analyzed on a BD LSRII flow cytometer.

Assay [2] deals with T2, CHI3L2 expressed in human T cell leukemia cell line Jurkat (human, UniProt Q15782 27-390).
T2 construct: whole, on cells; Endogenous protein, detected by intracellular staining
T2 sequence (looked up): T1 sequence (looked up)
Briefly: flow cytometry on fixed/permeabilized CHI3L2-expressing Jurkat cells, Alexa-647 antibody. As to the method: To asses for cross-reactivity with the closely related protein CHI3L2, certain anti-CHI3L1 antibody clones were assessed using CHI3L2 expressing human T cell leukemia cell line Jurkat. Jurkat cells were grown in RPMI media supplemented with 10% FBS in T75 culture flask. Cells were fixed in Fixation Buffer and permeabilized using Intracellular Perm Wash Buffer. 1 μg anti-CHI3L1 antibodies (conjugated to Alexa-647) were added and allowed to incubate for 15 minutes. Cells were then washed twice with Intracellular Perm Wash Buffer and analyzed on a BD LSRII flow cytometer.

Assay [3] has as its target T3, recombinant human CHI3L1 (human, UniProt P36222 22-383).
T3 construct: also called recombinant CHI3L1; CHI3L1 protein
Briefly: flow cytometry blocking assay: 1 µg antibody pre-incubated with 5 µg recombinant CHI3L1, then added to THP-1 cells. On the procedure:
as §1

Assay [4] has as its target T4, CHI3L1 expressed in human cell lines (THP-1, U-87 MG) (human, UniProt P36222 22-383).
T4 construct: Endogenous CHI3L1 of human cell lines; It was detected inside fixed and permeabilized cells, not on the cell surface; In the ERK assay it is the CHI3L1 made by live U-87 MG cells; also called chitinase 3 like protein 1; YKL-40
Briefly: flow cytometry, fixed/permeabilized CHI3L1-expressing THP-1 cells, 1 µg Alexa-647 antibody. As to the method:
In a first experiment, certain anti-CHI31L1 antibodies were assessed using CHI31L1 expressing human […] cell line THP-1. THP-1 cells were grown in RPMI media supplemented with 10% FBS in T75 culture flask. Cells were fixed in Fixation Buffer and permeabilized using Intracellular Perm Wash Buffer. 1 μg anti-CHI31L1 antibodies (conjugated to Alexa-647) were added and allowed to incubate for 15 minutes. Cells were then washed twice with Intracellular Perm Wash Buffer and analyzed on a BD LSRII flow cytometer.

In assay [5] the target is T3, recombinant human CHI3L1. The assay is described as follows: flow cytometry blocking assay on THP-1 cells (FIG. 5A legend). On the procedure:
as §1

The target of assay [6] is T3, recombinant human CHI3L1. Briefly: bead-based sandwich immunoassay; biotinylated Clone B is the detection antibody, SAV-PE read-out. On the procedure: In this Example, Clone F was paired with Clone B in a bead-based sandwich immunoassay. The assay used Clone F as a capture antibody to capture the antigen (CHI3L1 protein) and then Clone B was used as a detection antibody. The Clone F capture antibody was conjugated on the beads and the Clone B detection antibody was biotinylated. After incubation of the Clone F conjugated beads with CHI3L1 and then detection Clone B, on the beads surface, a sandwich including capture Clone F-CHI3L1-detection Clone B formed. The unbound CHI3L1 protein was then washed off and then streptavidin conjugated to phycoerythrin (SAV-PE) was added, which binds the biotin on the detection Clone B. The final complex including beads-Clone F capture antibody-CHI3L1-Clone B-SAV-PE was acquired onto a flow cytometer and the PE signal on the beads was measured.

Substitutions are numbered along the chain they refer to.

T4 sequence (P36222 22-383 limits assumed): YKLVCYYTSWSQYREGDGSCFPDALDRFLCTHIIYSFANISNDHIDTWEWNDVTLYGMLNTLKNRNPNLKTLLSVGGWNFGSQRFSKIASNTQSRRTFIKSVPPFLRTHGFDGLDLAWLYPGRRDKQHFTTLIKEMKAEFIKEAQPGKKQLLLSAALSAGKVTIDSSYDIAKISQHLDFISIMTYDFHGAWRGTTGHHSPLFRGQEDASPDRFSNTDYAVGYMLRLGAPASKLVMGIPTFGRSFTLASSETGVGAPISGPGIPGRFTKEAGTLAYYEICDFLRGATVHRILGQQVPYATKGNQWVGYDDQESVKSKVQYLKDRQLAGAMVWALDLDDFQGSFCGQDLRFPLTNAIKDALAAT
T3 sequence (P36222 22-383 limits assumed): as above

B1: anti-human CHI3L1 (Clone F) (antibody, V domains shown)
VH: QVQLQQSGPELVRPGVSVKISCKGSGYTFTDYAMHWVKQSHAKSLEWIGVISTYSGHTNYNQKFKGKATMTVDKSSSTAYMELARLTSEDSAIYYCARGVYYKPEFDYWGQGTTLTVSS
VL: DIQMTQSSSSFSVSLGDRVTITCKASEDIYNRLAWYQQKPGNAPRLLIFGATSLETGVPSRFSGSGSGKDYTLSITSLQTEDVATYYCQQYSSTPPTFGGGTKLEIK
notes: Hybridoma monoclonal antibody; a mouse IgG1 kappa isotype control was used alongside it
B1: the binding result in assay [1] was “no binding”; in assay [2], “no binding (tested: 1 µg)”.

B2: anti-human CHI3L1 (Clone H) (antibody, V domains shown)
VH: B1 VH with D31H, H57N
VL: B1 VL with Y30D, F49S, S92W
notes: Hybridoma monoclonal antibody; Conjugated to Alexa-647 for flow cytometry
Take B2: the binding result is listed as “no binding” in assay [1], “no binding (tested: 1 µg)” in assay [2], “binds” in assay [3] and “binds” in assay [4].

B3: Clone A (antibody, V domains shown)
VH: DVQLQESGPDLVKPSQSLSLTCTVTGYSITSGYSWHWIRQFPGNKLEWMGYIHYSGRTNYNPSLKSRISFTRDTSKNQFFLRLNSVTPEDTATYYCARNYGYDEFAYWGQGTLVTVSA
VL: QIVLTQSPAIMSASPGEKVTMTCSASSSVSYMHWYQQKSGTSPKRWIYDTSKLASGVPARFSGSGSGTSYSLTISSMEAEDAATYYCQQWSSNPPTFGSGTKLEIK
notes: as for B2
With B3, the binding result in assay [1] is on record as “no binding”; in assay [5], “binds”; in assay [2] it was “no binding (tested: 1 µg)”; in assay [4], “binds”.

B4: Clone E (antibody, V domains shown)
VH: B3 VH with R57T, F70I, R82Q, P88T, Y95S
VL: B3 VL
notes: as for B2
With B4, the binding result in assay [4] is given as “binds”.

B5: Clone B (antibody, V domains shown)
VH: EVKLLESGGGLVQPGGSLKLSCAASGCDFSRYWMSWVRQAPGKGLEWIGEINPDSSTINYTPSLKDKFIISRDNAKNTLYLQMSKVRSEDTALYYCARPEDHFAMDYWGQGTSVTVSS
VL: DIQMTQSPASQSASLGESVTITCLASQTIGTWLAWYQQKPGKSPQLLIYAATSLADGVPSRFSGSGSGTKFSFKISSLQAEDFVSYYCQQLYSTPWTFGGGTKLEIK
notes: Hybridoma monoclonal antibody
Consider B5, for which, in assay [6], the binding result was “binds”.

Values taken from patent US20250313650A1 (BIOLEGEND, published 2025).
